Residue numbers refer to the chain shown, from its start. Names may count otherwise. Values belong to the molecule of their own block, whether it stands above or below them.
Tests used:
apelin receptor = molecular target: T1, apelin receptor (Homo sapiens, UniProt P35414); settings: human heart; cited from earlier work
T1 construct: host or cells: human heart tissue
T1 sequence (P35414 1-380): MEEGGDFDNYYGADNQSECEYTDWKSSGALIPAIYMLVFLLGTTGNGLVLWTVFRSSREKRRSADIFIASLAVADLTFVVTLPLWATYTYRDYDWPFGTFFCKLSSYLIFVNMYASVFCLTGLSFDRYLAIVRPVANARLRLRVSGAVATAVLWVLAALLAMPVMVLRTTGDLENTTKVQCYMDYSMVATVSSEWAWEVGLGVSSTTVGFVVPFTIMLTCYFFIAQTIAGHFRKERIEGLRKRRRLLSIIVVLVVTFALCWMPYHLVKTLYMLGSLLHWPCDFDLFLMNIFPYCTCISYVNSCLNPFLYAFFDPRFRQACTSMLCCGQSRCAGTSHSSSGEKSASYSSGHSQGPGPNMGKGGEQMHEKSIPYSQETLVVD

apelin receptor (AGTRL1) = molecular target: T2, apelin receptor (AGTRL1) (Homo sapiens, UniProt P35414); test: PathHunter beta-arrestin signaling assay; type: cell-based; settings: PathHunter CHO-K1 AGTRL1 β-arrestin cells
T2 construct: host or cells: CHO-K1
T2 sequence (P35414 1-380): T1 sequence (P35414 1-380)
Method: In this example, commercially available HitHunter® cAMP assay was used to determine the effect of apelin receptor agonists on Gai signaling, measured cAMP depletion. Next, commercially available PathHunter® beta-arrestin assay was used to determine the effect of apelin receptor agonists on beta-arrestin signaling. Additionally, the effect of apelin receptor agonists on ERK signaling was determined.
In a 384-well plate (Corning #3897), PathHunter® CHO-K1 AGTRL1 β-arrestin cells (Eurofins DiscoverX #93-0250C2) were seeded at 5×10^3 cells/well in 20 μL AssayComplete Cell Plating 2 Reagent (Eurofins DiscoverX #93-0563R2A) and were incubated overnight at 37° C. with 5% CO2. On the following day, the plate was treated with 5 μL/well of compounds serially diluted in 1×PBS+0.1% BSA buffer and was incubated for 1.5 hr at 37° C. with 5% CO2. Then, 12.5 μL/well of detection solution was added, prepared as instructed in the PathHunter® Detection Kit (Eurofins DiscoverX #93-0001), the plate was wrapped in foil, and was incubated at room temperature. Plates were read after 1-2 hr of incubation on a standard luminescence plate reader. In this assay, low levels of β-arrestin in cells were directly related to low luminescence signal. Using Four Parameter Logistic Regression for curve fitting, the raw data file was processed into S-shaped dose-response curves from which values, such as the EC50, Hill Slope, and Emax, were quantified.

APJ-eGFP fusion protein = test: Internalization assay, CHO-M1 cells expressing APJ-eGFP, high-content imaging; type: cell-based; set-up: key: 0: No Internalization; >1000; 2: 100-1000; 3: 10-100; 4: <10; settings: lowest concentration at which maximum internalization was observed; 0.914 nM to 2000 nM
Method: In this example, the internalization of exemplary apelin receptor agonist was assessed. CHO-M1 cells expressing an APJ-eGFP fusion protein were stained and plated in a 96-well plate. Apelin receptor agonists were serially diluted and added to the wells at concentrations ranging from 0.914 nM to 2000 nM. The cells were later imaged using an Operetta CLS™ high-content analysis system. APJ-eGFP signal was measured in the membrane and cytoplasmic region, and the ratio of membrane signal to total signal was calculated (E ratio). An internalization score was assigned based on the lowest concentration of the compound at which maximum internalization was observed. The internalization score for each apelin receptor agonist was plotted against the EC50 values for cAMP signaling and beta-arrestin signaling as shown in FIG. 2 and FIG. 3.

[1] = Proteolysis during production detected using mass spectroscopy; type: physicochemical; settings: proteolytic stability
Description: Proteolysis during production was detected using mass spectroscopy, which provides insights into the proteolytic stability of the apelin receptor agonists.

[2] = molecular target: T3, APJ-eGFP fusion protein on CHO-M1 cells (UniProt P35414 1-380); test: cell-based or functional assay
T3 sequence (looked up): T1 sequence (P35414 1-380)

[3] = molecular target: T4, apelin receptor (AGTRL1) on CHO-K1 cells (UniProt P35414 1-380, limits assumed); test: cell-based or functional assay
T4 sequence (looked up): T1 sequence (P35414 1-380)

Molecule: elabela-21
affinity for the apelin receptor (apelin receptor): nanomolar affinity

beta-Arrestin EC50 (nM) Exp. 1 (apelin receptor (AGTRL1)): Weak
B1: ELA-D: Fc-linker fusion of elabela analogue KLRKHNCLQRRCMPLHQRVPFP (S17Q) (protein)
chain: MRAWIFFLLCLAGRALADKTHTSPPSPAPEAAGGPSVFLFPPKPKDTLMISRTPEVTCVVVDVSHEDPEVKFNWYVDGVEVHNAKTKPREEQYNSTYRVVSVLTVLHQDWLNGKEYKCKVSNKALPAPIEKTISKAKGQPREPQVYTLPPSREEMTKNQVNLTCLVKGFYPSDIAVEWESNGQPENNYKTTPPVLDSDGSFFLNSTLTVDKSRWQQGNVFSCSVMHEALHNHYTQKSLSLSPGKGGGGSGGGGSGGGGSKLRKHNCLQRRCMPLHQRVPFP
Internalization Score (APJ-eGFP fusion protein): 1 (>1000)
Proteolysis During Production? [1]: No

beta-Arrestin EC50 (nM) Exp. 1 (apelin receptor (AGTRL1)): Weak
B2: ELA-E: Fc-linker fusion of elabela analogue KLRKHNCLQRRCMPLHRRVPFP (S17R) (protein)
chain: B1 chain with Q276R
Internalization Score (APJ-eGFP fusion protein): 0
Proteolysis During Production? [1]: No

beta-Arrestin EC50 (nM) Exp. 2 (apelin receptor (AGTRL1); Exp. 2): Weak
B3: ELA-J: Fc-linker fusion of elabela analogue KLRKHNCLQERCMPLHSRVPFP (R10E) (protein)
chain: B1 chain with R269E, Q276S
Proteolysis During Production? [1]: Yes

Internalization Score [2]: 2
beta-Arrestin EC50 (nM) Exp. 1 [3]: 21.9 nM
beta-Arrestin EC50 (nM) Exp. 2 [3]: 97.5 nM
cAMP EC50 (nM) Exp. 1 [3]: 10 nM
cAMP EC50 (nM) Exp. 2 [3]: 5.8 nM
B4: ELA-H (Fc fusion)
chain: DKTHTSPPSPAPEAAGGPSVFLFPPKPKDTLMISRTPEVTCVVVDVSHEDPEVKFNWYVDGVEVHNAKTKPREEQYNSTYRVVSVLTVLHQDWLNGKEYKCKVSNKALPAPIEKTISKAKGQPREPQVYTLPPSREEMTKNQVNLTCLVKGFYPSDIAVEWESNGQPENNYKTTPPVLDSDGSFFLNSTLTVDKSRWQQGNVFSCSVMHEALHNHYTQKSLSLSPGKGGGGSGGGGSGGGGSKLRKHNCLQRRCMPYHSRVPFP

Internalization Score [2]: 2
beta-Arrestin EC50 (nM) Exp. 1 [3]: 3.45 nM
beta-Arrestin EC50 (nM) Exp. 2 [3]: 12.2 nM
cAMP EC50 (nM) Exp. 1 [3]: 4.76 nM
cAMP EC50 (nM) Exp. 2 [3]: 5.7 nM
B5: ELA-K (Fc fusion)
chain: B4 chain with Q251I, Y257L

Internalization Score [2]: 2
beta-Arrestin EC50 (nM) Exp. 1 [3]: 7.54 nM
beta-Arrestin EC50 (nM) Exp. 2 [3]: 6.9 nM
cAMP EC50 (nM) Exp. 1 [3]: 0.632 nM
cAMP EC50 (nM) Exp. 2 [3]: 2.8 nM
B6: ELA-L (Fc fusion)
chain: B4 chain with L250A, Q251T, Y257L

From US20240383958A1, “APELIN RECEPTOR AGONISTS AND USES THEREOF” (VISTERRA, INC., priority 2023, published 2024)
